Assay results reported in patent US20180155451A1 (published 2018).

B1: GpH7-A5/GpH7-B3 variant A327_13S/GpL16-k0 (antibody, human IgG1, kappa)
heavy 1: not shown
heavy 2: not shown
light: DIVMTQSPLSLPVTPGEPASISCQASESLVHSNRNTYLHWYLQKPGQSPQLLIYKVSNRFSGVPDRFSGSGSGTDFTLKISRVEAEDVGVYYCSQNTHVPPTFGQGTKVEIERTVAAPSVFIFPPSDEQLKSGTASVVCLLNNFYPREAKVQWKVDNALQSGNSQESVTEQDSKDSTYSLSSTLTLSKADYEKHKVYACEVTHQGLSSPVTKSFNRGEC
notes: heterodimerized; also called He Ab A327_13S
B2: GpH7-A5/GpH7-B3 variant A330_05P/GpL16-k0 (antibody, human IgG1, kappa)
heavy 1: not shown
heavy 2: not shown
light: B1 light
notes: heterodimerized; also called He Ab A330_05P
B3: GpH7-A5/GpH7-B3 variant A330_08L/GpL16-k0 (antibody, human IgG1, kappa)
heavy 1: not shown
heavy 2: not shown
light: B1 light
notes: heterodimerized; also called He Ab A330_08L; GpH7-A5/GpH7-B3-20-08L/GpL16-k0
B4: GpH7-A5/GpH7-B3 variant A330_09D/GpL16-k0 (antibody, human IgG1, kappa)
heavy 1: not shown
heavy 2: not shown
light: B1 light
notes: heterodimerized; also called He Ab A330_09D
B5: GpH7-A5/GpH7-B3 variant A330_11K/GpL16-k0 (antibody, human IgG1, kappa)
heavy 1: not shown
heavy 2: not shown
light: B1 light
notes: heterodimerized; also called He Ab A330_11K
B6: GpH7-A5/GpH7-B3 variant A330_14T/GpL16-k0 (antibody, human IgG1, kappa)
heavy 1: not shown
heavy 2: not shown
light: B1 light
notes: heterodimerized; also called He Ab A330_14T
B7: GpH7-A5/GpH7-B3 variant A330_16H/GpL16-k0 (antibody, human IgG1, kappa)
heavy 1: not shown
heavy 2: not shown
light: B1 light
notes: heterodimerized; also called He Ab A330_16H
B8: GpH7-A5/GpH7-B3 variant E269_01G/GpL16-k0 (antibody, human IgG1, kappa)
heavy 1: not shown
heavy 2: not shown
light: B1 light
notes: heterodimerized; also called He Ab E269_01G
B9: GpH7-A5/GpH7-B3 variant E269_02A/GpL16-k0 (antibody, human IgG1, kappa)
heavy 1: not shown
heavy 2: not shown
light: B1 light
notes: heterodimerized; also called He Ab E269_02A
B10: GpH7-A5/GpH7-B3 variant E269_03V/GpL16-k0 (antibody, human IgG1, kappa)
heavy 1: not shown
heavy 2: not shown
light: B1 light
notes: heterodimerized; also called He Ab E269_03V
B11: GpH7-A5/GpH7-B3 variant E269_05P/GpL16-k0 (antibody, human IgG1, kappa)
heavy 1: not shown
heavy 2: not shown
light: B1 light
notes: heterodimerized; also called He Ab E269_05P
B12: GpH7-A5/GpH7-B3 variant E269_06M/GpL16-k0 (antibody, human IgG1, kappa)
heavy 1: not shown
heavy 2: not shown
light: B1 light
notes: heterodimerized; also called He Ab E269_06M
B13: GpH7-A5/GpH7-B3 variant E269_07I/GpL16-k0 (antibody, human IgG1, kappa)
heavy 1: not shown
heavy 2: not shown
light: B1 light
notes: heterodimerized; also called He Ab E269_07I
B14: GpH7-A5/GpH7-B3 variant E269_08L/GpL16-k0 (antibody, human IgG1, kappa)
heavy 1: not shown
heavy 2: not shown
light: B1 light
notes: heterodimerized; also called He Ab E269_08L
B15: GpH7-A5/GpH7-B3 variant E269_09D/GpL16-k0 (antibody, human IgG1, kappa)
heavy 1: not shown
heavy 2: not shown
light: B1 light
notes: heterodimerized; also called He Ab E269_09D
B16: GpH7-A5/GpH7-B3 variant E269_13S/GpL16-k0 (antibody, human IgG1, kappa)
heavy 1: not shown
heavy 2: not shown
light: B1 light
notes: heterodimerized; also called He Ab E269_13S
B17: GpH7-A5/GpH7-B3 variant E269_14T/GpL16-k0 (antibody, human IgG1, kappa)
heavy 1: not shown
heavy 2: not shown
light: B1 light
notes: heterodimerized; also called He Ab E269_14T
B18: GpH7-A5/GpH7-B3 variant E269_15Y/GpL16-k0 (antibody, human IgG1, kappa)
heavy 1: not shown
heavy 2: not shown
light: B1 light
notes: heterodimerized; also called He Ab E269_15Y
B19: GpH7-A5/GpH7-B3 variant E269_16H/GpL16-k0 (antibody, human IgG1, kappa)
heavy 1: not shown
heavy 2: not shown
light: B1 light
notes: heterodimerized; also called He Ab E269_16H
B20: GpH7-A5/GpH7-B3 variant E269_18N/GpL16-k0 (antibody, human IgG1, kappa)
heavy 1: not shown
heavy 2: not shown
light: B1 light
notes: heterodimerized; also called He Ab E269_18N
B21: GpH7-A5/GpH7-B3 variant E269_19Q/GpL16-k0 (antibody, human IgG1, kappa)
heavy 1: not shown
heavy 2: not shown
light: B1 light
notes: heterodimerized; also called He Ab E269_19Q
B22: GpH7-A5/GpH7-B3 variant E269_20W/GpL16-k0 (antibody, human IgG1, kappa)
heavy 1: not shown
heavy 2: not shown
light: B1 light
notes: heterodimerized; also called He Ab E269_20W
B23: GpH7-A5/GpH7-B3 variant E333_01G/GpL16-k0 (antibody, human IgG1, kappa)
heavy 1: not shown
heavy 2: not shown
light: B1 light
notes: heterodimerized; also called He Ab E333_01G
B24: GpH7-A5/GpH7-B3 variant E333_02A/GpL16-k0 (antibody, human IgG1, kappa)
heavy 1: not shown
heavy 2: not shown
light: B1 light
notes: heterodimerized; also called He Ab E333_02A
B25: GpH7-A5/GpH7-B3 variant E333_03V/GpL16-k0 (antibody, human IgG1, kappa)
heavy 1: not shown
heavy 2: not shown
light: B1 light
notes: heterodimerized; also called He Ab E333_03V
B26: GpH7-A5/GpH7-B3 variant E333_04F/GpL16-k0 (antibody, human IgG1, kappa)
heavy 1: not shown
heavy 2: not shown
light: B1 light
notes: heterodimerized; also called He Ab E333_04F
B27: GpH7-A5/GpH7-B3 variant E333_05P/GpL16-k0 (antibody, human IgG1, kappa)
heavy 1: not shown
heavy 2: not shown
light: B1 light
notes: heterodimerized; also called He Ab E333_05P
B28: GpH7-A5/GpH7-B3 variant E333_06M/GpL16-k0 (antibody, human IgG1, kappa)
heavy 1: not shown
heavy 2: not shown
light: B1 light
notes: heterodimerized; also called He Ab E333_06M
B29: GpH7-A5/GpH7-B3 variant E333_07I/GpL16-k0 (antibody, human IgG1, kappa)
heavy 1: not shown
heavy 2: not shown
light: B1 light
notes: heterodimerized; also called He Ab E333_07I
B30: GpH7-A5/GpH7-B3 variant E333_08L/GpL16-k0 (antibody, human IgG1, kappa)
heavy 1: not shown
heavy 2: not shown
light: B1 light
notes: heterodimerized; also called He Ab E333_08L

biological target: T1, FcγRIa (human, UniProt P12314 16-292); test: SPR; vs GpH7-A5/GpH7-B3/GpL16-k0=100
T1 construct: extracellular domain; also called FcgRI; CD64
T1 sequence (P12314 16-292): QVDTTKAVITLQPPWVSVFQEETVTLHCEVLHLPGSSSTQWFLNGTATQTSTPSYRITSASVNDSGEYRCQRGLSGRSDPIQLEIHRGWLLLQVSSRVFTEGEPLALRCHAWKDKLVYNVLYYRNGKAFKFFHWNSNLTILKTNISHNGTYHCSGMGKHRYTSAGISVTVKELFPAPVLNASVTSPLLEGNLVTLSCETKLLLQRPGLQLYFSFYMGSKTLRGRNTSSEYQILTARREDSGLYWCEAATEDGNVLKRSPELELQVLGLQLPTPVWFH

| Binder | He/Con_1a |
| --- | --- |
| B1 | 102 % of control |
| B2 | 101 % of control |
| B3 | 107 % of control |
| B4 | 109 % of control |
| B5 | 103 % of control |
| B6 | 105 % of control |
| B7 | 106 % of control |
| B8 | 104 % of control |
| B9 | 104 % of control |
| B10 | 103 % of control |
| B11 | 102 % of control |
| B12 | 104 % of control |
| B13 | 103 % of control |
| B14 | 104 % of control |
| B15 | 107 % of control |
| B16 | 103 % of control |
| B17 | 106 % of control |
| B18 | 106 % of control |
| B19 | 106 % of control |
| B20 | 102 % of control |
| B21 | 105 % of control |
| B22 | 105 % of control |
| B23 | 103 % of control |
| B24 | 103 % of control |
| B25 | 105 % of control |
| B26 | 102 % of control |
| B27 | 102 % of control |
| B28 | 102 % of control |
| B29 | 102 % of control |
| B30 | 102 % of control |
